Earlier results, collected in paper PMC11449013.
Read-outs that look alike come from different tables or passages of the source.

Target: His128 (UniProt position 179, FICPCHGSQYN)

Cytochrome b6f complex Rieske iron-sulfur protein (ISP, PetC) (Spinacia oleracea (residue numbering; the article does not state the species in which the quoted values were measured))
pKa (2Fe2S cluster oxidised): ∼6.2 | pKa (2Fe2S cluster reduced): ∼8
